# B1: Rec: bovine Rec, Ca^2+-sensor protein (protein, UniProt P21457 2-202, looked up)
# Recoverin: GNSKSGALSKEILEELQLNTKFTEEELSSWYQSFLKECPSGRITRQEFQTIYSKFFPEADPKAYAQHVFRSFDANSDGTLDFKEYVIALHMTSAGKTNQKLEWAFSLYDVDGNGTISKNEVLEIVTAIFKMISPEDTKHLPEDENTPEKRAEKIWGFFGKKDDDKLTEKEFIEGTLANKEILRLIQFEPQKVKEKLKEKKL
# Tests used:
# Rec = settings: presence of Ca^2+; cited from earlier work
# Source text: Solvation of their large hydrophobic surfaces might influence the intera ...
# [1] = Analytical size exclusion chromatography; assay type: physicochemical; settings: analytical SEC, 20 mM HEPES pH 7.4, 150 mM KCl, 1 mM DTT, 1 mM Mg^2+, 2 mM Ca^2+; CIB2 ∼70 µM (A2 band), Rec ∼80 µM, CaM ∼110 µM
# Description: The molecular weight (MW) of the proteins was determined before and after DSBU-modification as previously described[7] in the same buffer (20 mM HEPES, pH 7.5, 1 mM DTT, 1 mM Mg^2+ and 2 mM Ca^2+). […] Standard calibration curve for MW estimation was the same used in our previous study.
# Dynamic light scattering = assay type: physicochemical; settings: 37 °C, fractions eluted from SEC (CIB2 A2 band), mean ± SEM; n = 15 (CIB2), 18 (Rec), 30 (CaM); 1.8 µM CIB2, 11 µM Rec, 7.4 µM CaM
# Description: DLS measurements were performed using Zetasizer Nano-S (Malvern Instruments) at 37 °C by setting the same parameters for hydrodynamic diameter estimation as in ref.[26]. The estimation was based on 15–30 measurements, each consisting of at least 13 repetitions; data in Table 1 are reported as mean ± standard error of mean (SEM). DLS samples for each protein are the same collected in the Analytical Size Exclusion Chromatography.
# His-tagged proteins, and then blocked via amine coupling as explained above. Preparation of the […]
# approximately 2250 RU of CIB2 immobilized. In binding experiments, peptide concentration was varied in the 230 nM- 30 μM range for both α7B_M, and α7B_C, and experiments were repeated 4 times, both with the HBS buffer described above (containing 1 mM MgCl2) and with further addition of 2 mM CaCl2. Flow rate was set to 20 μl min−1 in all binding experiments, and the dissociation […]
# Figure S1: DLS measurements of the SEC collected peaks. CIB2 band A2 (A), Rec (B) and CaM (C). Each data set consisted of 15-30 measurements (grey lines), with 13-15 repetitions each. Colored lines are referred to the average distribution. Temperature was set to 37°C and samples were equilibrated for 2 min before measurements.
# Figure S2: Time-resolved proteolysis experiments. […]
molecule,measurement,setting,value
B1,concentration above which dimers were isolated,Rec,above 100 μM
same,MW^SEC,[1],33.5 kDa
same,DLS Ø hydrodynamic diameter,Dynamic light scattering,5.0 ± 0.1 nm

# Source: article PMC6803640, “Oligomeric state, hydrodynamic properties and target recognition of human Calcium and Integrin Binding protein 2 (CIB2)” (Scientific Reports, 2019)
